Holding throughout (assay): cell-based or functional assay
For one assay, the target named is T1, MMP1 (human, UniProt P03956 100-469, limits assumed).
T1 sequence (looked up): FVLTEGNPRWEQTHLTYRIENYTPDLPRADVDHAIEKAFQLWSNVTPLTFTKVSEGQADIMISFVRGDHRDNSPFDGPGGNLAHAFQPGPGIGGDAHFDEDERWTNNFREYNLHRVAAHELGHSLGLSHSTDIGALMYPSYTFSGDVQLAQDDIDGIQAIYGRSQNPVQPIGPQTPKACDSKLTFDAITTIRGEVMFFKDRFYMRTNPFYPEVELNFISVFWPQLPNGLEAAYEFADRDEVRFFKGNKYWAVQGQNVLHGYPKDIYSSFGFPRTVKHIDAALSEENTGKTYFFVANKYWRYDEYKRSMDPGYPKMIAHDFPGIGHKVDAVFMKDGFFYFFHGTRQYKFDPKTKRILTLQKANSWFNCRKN

The next assay concerns the target T2, Cathepsin G (UniProt P08311 21-244).
T2 sequence (looked up): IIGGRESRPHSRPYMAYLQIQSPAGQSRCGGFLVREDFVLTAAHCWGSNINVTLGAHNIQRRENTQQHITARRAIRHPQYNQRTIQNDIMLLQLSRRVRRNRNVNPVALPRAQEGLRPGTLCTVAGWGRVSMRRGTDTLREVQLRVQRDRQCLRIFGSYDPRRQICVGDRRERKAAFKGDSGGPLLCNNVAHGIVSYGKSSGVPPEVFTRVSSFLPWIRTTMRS

The next assay addresses Elastase.

B1: Variant A2M, bait region SEQ ID NO 142 (other)
chain: SVSGKPQYMVLVPSLLHTETTEKGCVLLSYLNETVTVSASLESVRGNRSLFTDLEAENDVLHCVAFAVPKSSSNEEVMFLTVQVKGPTQEFKKRTTVMVKNEDSLVFVQTDKSIYKPGQTVKFRVVSMDENFHPLNELIPLVYIQDPKGNRIAQWQSFQLEGGLKQFSFPLSSEPFQGSYKVVVQKKSGGRTEHPFTVEEFVLPKFEVQVTVPKIITILEEEMNVSVCGLYTYGKPVPGHVTVSICRKYSDASDCHGEDSQAFCEKFSGQLNSHGCFYQQVKTKVFQLKRKEYEMKLHTEAQIQEEGTVVELTGRQSSEITRTITKLSFVKVDSHFRQGIPFFGQVRLVDGKGVPIPNKVIFIRGNEANYYSNATTDEHGLVQFSINTTNVMGTSLTVRVNYKDRSPCYGYQWVSEEHEEAHHTAYLVFSPSKSFVHLEPMSHELPCGHTQTVQAHYILNGGTLLGLKKLSFYYLIMAKGGIVRTGTHGLLVKQEDMKGHFSISIPVKSDIAPVARLLIYAVLPTGDVIGDSAKYDVENCLANKVDLSFSPSQSLPASHAHLRVTAAPQSVCALRAVDQSVLLMKPDAELSASSVYNLLPEKDLTGFPGPLNDQDDEDCINRHNVYINGITYTPVSSTNEKDMYSFLEDMGLKAFTNSKIRKPKMCPQLEQYEMHGPSELEGRGSIPENFFGVEGEGEGEGKEEEGLGSVEEPHTKLRKYFPETWIWDLVVVNSAGVAEVGVTVPDTITEWKAGAFCLSEDAGLGISSTASLRAFQPFFVELTMPYSVIRGEAFTLKATVLNYLPKCIRVSVQLEASPAFLAVPVEKEQAPHCICANGRQTVSWAVTPKSLGNVNFTVSAEALESQELCGTEVPSVPEHGRKDTVIKPLLVEPEGLEKETTFNSLLCPSGGEVSEELSLKLPPNVVEESARASVSVLGDILGSAMQNTQNLLQMPYGCGEQNMVLFAPNIYVLDYLNETQQLTPEIKSKAIGYLNTGYQRQLNYKHYDGSYSTFGERYGRNQGNTWLTAFVLKTFAQARAYIFIDEAHITQALIWLSQRQKDNGCFRSSGSLLNNAIKGGVEDEVTLSAYITIALLEIPLTVTHPVVRNALFCLESAWKTAQEGDHGSHVYTKALLAYAFALAGNQDKRKEVLKSLNEEAVKKDNSVHWERPQKPKAPVGHFYEPQAPSAEVEMTSYVLLAYLTAQPAPTSEDLTSATNIVKWITKQQNAQGGFSSTQDTVVALHALSKYGAATFTRTGKAAQVTIQSSGTFSSKFQVDNNNRLLLQQVSLPELPGEYSMKVTGEGCVYLQTSLKYNILPEKEEFPFALGVQTLPQTCDEPKAHTSFQISLSVSYTGSRSASNMAIVDVKMVSGFIPLKPTVKMLERSNHVSRTEVSSNHVLIYLDKVSNQTLSLFFTVLQDVPVRDLKPAIVKVYDYYETDEFAIAEYNAPCSKDLGNADYKDDDDKGASHHHHHH
B1: the “Protease Inhibition (% of WT)” value with MMP1 is 350 % of WT; with Cathepsin G, 300 % of WT; in the assay with Elastase, 200 % of WT.

B2: Variant A2M, bait region SEQ ID NO 139 (other)
chain: SVSGKPQYMVLVPSLLHTETTEKGCVLLSYLNETVTVSASLESVRGNRSLFTDLEAENDVLHCVAFAVPKSSSNEEVMFLTVQVKGPTQEFKKRTTVMVKNEDSLVFVQTDKSIYKPGQTVKFRVVSMDENFHPLNELIPLVYIQDPKGNRIAQWQSFQLEGGLKQFSFPLSSEPFQGSYKVVVQKKSGGRTEHPFTVEEFVLPKFEVQVTVPKIITILEEEMNVSVCGLYTYGKPVPGHVTVSICRKYSDASDCHGEDSQAFCEKFSGQLNSHGCFYQQVKTKVFQLKRKEYEMKLHTEAQIQEEGTVVELTGRQSSEITRTITKLSFVKVDSHFRQGIPFFGQVRLVDGKGVPIPNKVIFIRGNEANYYSNATTDEHGLVQFSINTTNVMGTSLTVRVNYKDRSPCYGYQWVSEEHEEAHHTAYLVFSPSKSFVHLEPMSHELPCGHTQTVQAHYILNGGTLLGLKKLSFYYLIMAKGGIVRTGTHGLLVKQEDMKGHFSISIPVKSDIAPVARLLIYAVLPTGDVIGDSAKYDVENCLANKVDLSFSPSQSLPASHAHLRVTAAPQSVCALRAVDQSVLLMKPDAELSASSVYNLLPEKDLTGFPGPLNDQDDEDCINRHNVYINGITYTPVSSTNEKDMYSFLEDMGLKAFTNSKIRKPKMCPQLEQYEMHGPSEDLVVQIEGEGEGEGIPENFFGVEAIPMSIPTEPHTKLRKYFPETWIWDLVVVNSAGVAEVGVTVPDTITEWKAGAFCLSEDAGLGISSTASLRAFQPFFVELTMPYSVIRGEAFTLKATVLNYLPKCIRVSVQLEASPAFLAVPVEKEQAPHCICANGRQTVSWAVTPKSLGNVNFTVSAEALESQELCGTEVPSVPEHGRKDTVIKPLLVEPEGLEKETTFNSLLCPSGGEVSEELSLKLPPNVVEESARASVSVLGDILGSAMQNTQNLLQMPYGCGEQNMVLFAPNIYVLDYLNETQQLTPEIKSKAIGYLNTGYQRQLNYKHYDGSYSTFGERYGRNQGNTWLTAFVLKTFAQARAYIFIDEAHITQALIWLSQRQKDNGCFRSSGSLLNNAIKGGVEDEVTLSAYITIALLEIPLTVTHPVVRNALFCLESAWKTAQEGDHGSHVYTKALLAYAFALAGNQDKRKEVLKSLNEEAVKKDNSVHWERPQKPKAPVGHFYEPQAPSAEVEMTSYVLLAYLTAQPAPTSEDLTSATNIVKWITKQQNAQGGFSSTQDTVVALHALSKYGAATFTRTGKAAQVTIQSSGTFSSKFQVDNNNRLLLQQVSLPELPGEYSMKVTGEGCVYLQTSLKYNILPEKEEFPFALGVQTLPQTCDEPKAHTSFQISLSVSYTGSRSASNMAIVDVKMVSGFIPLKPTVKMLERSNHVSRTEVSSNHVLIYLDKVSNQTLSLFFTVLQDVPVRDLKPAIVKVYDYYETDEFAIAEYNAPCSKDLGNADYKDDDDKGASHHHHHH
With B2, the “Protease Inhibition (% of WT)” value with MMP1 was 400 % of WT; in the assay with Cathepsin G, 200 % of WT; with Elastase, 200 % of WT.

B3: Variant A2M, bait region SEQ ID NO 138 (other)
chain: SVSGKPQYMVLVPSLLHTETTEKGCVLLSYLNETVTVSASLESVRGNRSLFTDLEAENDVLHCVAFAVPKSSSNEEVMFLTVQVKGPTQEFKKRTTVMVKNEDSLVFVQTDKSIYKPGQTVKFRVVSMDENFHPLNELIPLVYIQDPKGNRIAQWQSFQLEGGLKQFSFPLSSEPFQGSYKVVVQKKSGGRTEHPFTVEEFVLPKFEVQVTVPKIITILEEEMNVSVCGLYTYGKPVPGHVTVSICRKYSDASDCHGEDSQAFCEKFSGQLNSHGCFYQQVKTKVFQLKRKEYEMKLHTEAQIQEEGTVVELTGRQSSEITRTITKLSFVKVDSHFRQGIPFFGQVRLVDGKGVPIPNKVIFIRGNEANYYSNATTDEHGLVQFSINTTNVMGTSLTVRVNYKDRSPCYGYQWVSEEHEEAHHTAYLVFSPSKSFVHLEPMSHELPCGHTQTVQAHYILNGGTLLGLKKLSFYYLIMAKGGIVRTGTHGLLVKQEDMKGHFSISIPVKSDIAPVARLLIYAVLPTGDVIGDSAKYDVENCLANKVDLSFSPSQSLPASHAHLRVTAAPQSVCALRAVDQSVLLMKPDAELSASSVYNLLPEKDLTGFPGPLNDQDDEDCINRHNVYINGITYTPVSSTNEKDMYSFLEDMGLKAFTNSKIRKPKMCPQLEQYEMHGPSEDLVVQIEGEGEGEGIPENFFGVKEEEGLGSVEEPHTKLRKYFPETWIWDLVVVNSAGVAEVGVTVPDTITEWKAGAFCLSEDAGLGISSTASLRAFQPFFVELTMPYSVIRGEAFTLKATVLNYLPKCIRVSVQLEASPAFLAVPVEKEQAPHCICANGRQTVSWAVTPKSLGNVNFTVSAEALESQELCGTEVPSVPEHGRKDTVIKPLLVEPEGLEKETTFNSLLCPSGGEVSEELSLKLPPNVVEESARASVSVLGDILGSAMQNTQNLLQMPYGCGEQNMVLFAPNIYVLDYLNETQQLTPEIKSKAIGYLNTGYQRQLNYKHYDGSYSTFGERYGRNQGNTWLTAFVLKTFAQARAYIFIDEAHITQALIWLSQRQKDNGCFRSSGSLLNNAIKGGVEDEVTLSAYITIALLEIPLTVTHPVVRNALFCLESAWKTAQEGDHGSHVYTKALLAYAFALAGNQDKRKEVLKSLNEEAVKKDNSVHWERPQKPKAPVGHFYEPQAPSAEVEMTSYVLLAYLTAQPAPTSEDLTSATNIVKWITKQQNAQGGFSSTQDTVVALHALSKYGAATFTRTGKAAQVTIQSSGTFSSKFQVDNNNRLLLQQVSLPELPGEYSMKVTGEGCVYLQTSLKYNILPEKEEFPFALGVQTLPQTCDEPKAHTSFQISLSVSYTGSRSASNMAIVDVKMVSGFIPLKPTVKMLERSNHVSRTEVSSNHVLIYLDKVSNQTLSLFFTVLQDVPVRDLKPAIVKVYDYYETDEFAIAEYNAPCSKDLGNADYKDDDDKGASHHHHHH
For B3, the “Protease Inhibition (% of WT)” value with MMP1 was 200 % of WT; with Cathepsin G, 100 % of WT; in the assay with Elastase, 250 % of WT.

(Values after patent US20230250154A1 (CYTONICS, published 2023).)
